Data as given in patent US20190248900A1 (Y BIOLOGICS, published 2019).

T1: ITGA6-Fc
T1 construct: Fc fusion
T1 sequence (P23229 whole entry, species assumed, looked up): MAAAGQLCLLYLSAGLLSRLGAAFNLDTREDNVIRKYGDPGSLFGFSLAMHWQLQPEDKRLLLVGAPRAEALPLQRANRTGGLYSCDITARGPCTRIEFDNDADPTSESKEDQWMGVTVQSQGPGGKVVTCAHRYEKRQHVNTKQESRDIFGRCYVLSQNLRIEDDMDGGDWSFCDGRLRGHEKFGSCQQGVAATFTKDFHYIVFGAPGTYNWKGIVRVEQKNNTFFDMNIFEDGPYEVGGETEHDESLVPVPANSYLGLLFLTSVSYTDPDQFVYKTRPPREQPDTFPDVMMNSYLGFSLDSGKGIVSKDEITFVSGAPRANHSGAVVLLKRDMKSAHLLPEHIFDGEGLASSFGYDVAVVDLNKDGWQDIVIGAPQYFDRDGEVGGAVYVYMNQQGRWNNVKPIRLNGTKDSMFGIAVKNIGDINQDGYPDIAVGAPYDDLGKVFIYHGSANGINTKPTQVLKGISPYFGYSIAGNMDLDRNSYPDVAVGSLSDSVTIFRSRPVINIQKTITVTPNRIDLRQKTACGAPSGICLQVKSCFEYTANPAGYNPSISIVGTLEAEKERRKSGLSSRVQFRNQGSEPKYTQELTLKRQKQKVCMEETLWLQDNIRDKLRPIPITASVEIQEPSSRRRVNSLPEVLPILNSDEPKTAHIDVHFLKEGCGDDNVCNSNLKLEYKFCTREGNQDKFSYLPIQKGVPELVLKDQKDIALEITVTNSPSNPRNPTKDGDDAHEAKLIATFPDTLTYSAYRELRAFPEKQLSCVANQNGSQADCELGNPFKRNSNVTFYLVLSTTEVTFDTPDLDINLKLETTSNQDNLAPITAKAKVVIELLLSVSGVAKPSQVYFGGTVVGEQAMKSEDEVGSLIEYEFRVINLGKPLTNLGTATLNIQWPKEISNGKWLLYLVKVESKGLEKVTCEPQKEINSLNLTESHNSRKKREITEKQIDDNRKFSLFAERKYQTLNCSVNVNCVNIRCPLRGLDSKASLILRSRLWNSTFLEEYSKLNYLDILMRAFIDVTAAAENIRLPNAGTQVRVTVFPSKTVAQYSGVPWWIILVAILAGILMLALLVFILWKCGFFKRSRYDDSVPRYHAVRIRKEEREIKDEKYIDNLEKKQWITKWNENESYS

B1: PD1-45D6 (antibody, V domains shown)
VH: QVQLVESGGGVVQPGRSLRLSCAASGFTFSSYAMHWVRQVPGKGLEWVAVISYDGNDKYYADSVKGRFTISRDNSKNTLYLQMNSLRAEDTAVYYCVPTTFEYWGQGSQVTVSS
VL: DIVMTQTPLSLPVTPGEAASISCRSSQSLLDSDDGKTYLDWYLQKPGQSPQLLIYTLSYRASGVPDRFSGSGSGTEFNLRISRVEAEDVGIYYCMQRVEFPFTFGQGTKLDIK
notes: scFv-phage in the screening ELISA; whole IgG in the other assays
B2: PD1-41C9 (antibody, V domains shown)
VH: QMQLVESGGGVVQPGRSLRLSCAASGFTFSSYAMHWVRQAPGKGLEWVAVISYDGSNKYYADSVKGRFTISRDNSKNTLYLQMNRLRSEDTAVYYCTTTTFDSWGQGTLITVSS
VL: DIVMTQTPLSLPVTPGEAASISCRSSQSLLDSEDGNTYLDWYLQKPGQSPQLLIYTLSHRASGVPDRFSGSGSGTDFTLKISRVAAEDVGLYYCLQRMGFPYTFGQGTKLDIK
notes: as for B1
B3: PD1-49A2 (antibody, V domains shown)
VH: QVQLVESGGGVVQPGRSLRLSCAASGFTFSSYAMHWVRQAPGKGLEWVAVISYDGSNKYYADSVKGRFTISRDNPKNTLYLQMNSLRAEDTAVYYCTTTTFDSWGRGTLVTVSS
VL: DIVMTQSPLSLPVTPGEPASISCRSSQSLFDSDDGNTYLDWYLQKPGQSPQLLIYTLSHRASGVPDRFSGSGSGTDFTLKISRVEAEDVGIYYCLQRMGFPYTFGQGTKVEIK
notes: scFv-phage in the screening ELISA; whole IgG in the other assays; also called Parent 49A2
B4: PD1-52E8 (antibody, V domains shown)
VH: QVQLVQSGGNLVQPGRSLRLSCAASGFTFDDYAMHWVRQAPGKGLEWVSGISWNSGTPGYADSVQGRFTISRDNAKNSLYLQMNSLRAEDTAVYYCARGHNYLDSSYYDYWGQGTLVTVSS
VL: SYELTQPLSLSVAPGQTARITCSGDALSKEYSYWYQQKPGQAPVLVMYKDSERPSGIPERFSGSSSGTTVTLTISGVQAEDEADYYCQSVDSSDTSVVFGGGTKLTVL
notes: as for B1

Legend:
[1] = molecular target: T2, human PD-1 (NM_005018.2) over-expressed on cells (human, UniProt Q15116 25-288); assay: cell-based or functional assay
T2 sequence (Q15116 25-288): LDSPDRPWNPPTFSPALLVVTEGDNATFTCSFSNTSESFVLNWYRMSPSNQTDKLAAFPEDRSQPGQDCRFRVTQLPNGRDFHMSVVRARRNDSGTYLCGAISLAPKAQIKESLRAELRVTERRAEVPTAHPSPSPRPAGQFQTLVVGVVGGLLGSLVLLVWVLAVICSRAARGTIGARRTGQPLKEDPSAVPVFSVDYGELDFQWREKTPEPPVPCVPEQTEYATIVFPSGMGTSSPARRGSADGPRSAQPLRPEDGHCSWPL

M6 = molecular target: T3, M6; assay: ELISA, 1 ug/ml
T3 construct: also called PD1 mutant M6

M1 = molecular target: T4, M1; assay: ELISA, 1 ug/ml
T4 construct: also called PD1 mutant M1

M3 = molecular target: T5, M3; assay: ELISA, 1 ug/ml
T5 construct: also called PD1 mutant M3

M7-2 [2] = molecular target: T6, M7-2; assay: ELISA, 1 ug/ml
T6 construct: also called PD1 mutant M7-2

M5 = molecular target: T7, M5; assay: ELISA, 1 ug/ml
T7 construct: also called PD1 mutant M5

[3] = molecular target: T8, PD1-his (Catalog Number 10377-H08H, Sino Biological Inc.) (UniProt Q15116 25-167); assay: ELISA, 1 ug/ml
T8 construct: bought protein; not shown: His tag
T8 sequence (Q15116 25-167 limits assumed): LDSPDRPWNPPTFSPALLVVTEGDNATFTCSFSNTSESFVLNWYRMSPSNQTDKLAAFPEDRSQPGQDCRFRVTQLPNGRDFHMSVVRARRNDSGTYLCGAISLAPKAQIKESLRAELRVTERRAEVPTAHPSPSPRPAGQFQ

M2-1 = molecular target: T9, M2-1; assay: ELISA, 1 ug/ml
T9 construct: also called PD1 mutant M2-1

M12 = molecular target: T10, M12; assay: ELISA, 1 ug/ml
T10 construct: also called PD1 mutant M12

ITGA6-Fc = molecular target: T1, ITGA6-Fc; assay: ELISA, 1 ug/ml
M7-1 = molecular target: T11, M7-1; assay: ELISA, 1 ug/ml
T11 construct: also called PD1 mutant M7-1

M5-2 = molecular target: T12, M5-2; assay: ELISA, 1 ug/ml
T12 construct: also called PD1 mutant M5-2

M14 = molecular target: T13, M14; assay: ELISA, 1 ug/ml
T13 construct: also called PD1 mutant M14

M10 = molecular target: T14, M10; assay: ELISA, 1 ug/ml
T14 construct: also called PD1 mutant M10

M7 = molecular target: T15, M7; assay: ELISA, 1 ug/ml
T15 construct: also called PD1 mutant M7

M2-2 = molecular target: T16, M2-2; assay: ELISA, 1 ug/ml
T16 construct: also called PD1 mutant M2-2

M13 = molecular target: T17, M13; assay: ELISA, 1 ug/ml
T17 construct: also called PD1 mutant M13

M8 = molecular target: T18, M8; assay: ELISA, 1 ug/ml
T18 construct: also called PD1 mutant M8

M1-1 [4] = molecular target: T19, M1-1; assay: ELISA, 1 ug/ml
T19 construct: also called PD1 mutant M1-1

M1-2 = molecular target: T20, M1-2; assay: ELISA, 1 ug/ml
T20 construct: also called PD1 mutant M1-2

[5] = molecular target: T2, human PD-1 (NM_005018.2) over-expressed …; assay: cell-based or functional assay; remark: listed apart in the source
[6] = molecular target: T2, human PD-1 (NM_005018.2) over-expressed …; assay: flow cytometry on cells over-expressing human PD-1, Geometric Mean
Method: 0.5 to 1×10⁶ cells per sample were each prepared from the transformation cell pools highly expressing human PD-1, and antibodies were serially diluted at a constant dilution rate and reacted with the prepared cells at 4° C. for 20 minutes. Then, the cells were washed three times with PBS (#LB001-02, Welgene) containing 2% fetal bovine serum and reacted at 4° C. for 20 minutes with an anti-human IgG antibody (#FI-3000, Vectorlabs) conjugated with a FITC (fluorescein isothiocyanate) fluorescent substance. Then, the cells were subjected to the same washing process as above and then suspended in 0.5 ml of PBS containing 2% FBS (#26140-079, Thermo Fisher) with an FACSCanto II flow cytometer (BD Biosciences, USA) as a flow cytometer.

M7-2 [7] = molecular target: T6, M7-2; assay: scFv-phage ELISA
M1-1 [8] = molecular target: T19, M1-1; assay: scFv-phage ELISA

| Binder | OD490 (M6) | OD490 (M1) | OD490 (M3) | OD490 (M7-2 [2]) | OD490 (M5) | OD490 [3] | OD490 (M2-1) | OD490 (M12) | OD490 (ITGA6-Fc) | OD490 (M7-1) | OD490 (M5-2) | OD490 (M14) | OD490 (M10) | OD490 (M7) | OD490 (M2-2) | OD490 (M13) | OD490 (M8) | OD490 (M1-1 [4]) | OD490 (M1-2) | EC50 [nM], PD1/PD-L1 blockade bioassay [5] | other results |
| --- | --- | --- | --- | --- | --- | --- | --- | --- | --- | --- | --- | --- | --- | --- | --- | --- | --- | --- | --- | --- | --- |
| B1 | 3.9 | 4 | 3.8 | 4 | 3.6 | 3.8 | 3.9 | 3.9 | 0.5 | 1.3 | 3.9 | 3.9 | 3.9 | 0.5 | 3.8 | 4 | 3.8 | 3.8 | 3.9 | 2 nM | EC50 [1]: 1.29 nM; EC50 [6]: 4.84 nM; OD490 (M7-2 [7]): 4; OD490 (M1-1 [8]): 3.8 |
| B2 | 3.6 | 3.2 | 2.3 | 3 | 2.3 | 3.2 | 3.4 | 3.1 | 0.5 | 1.2 | 3.6 | 3.5 | 3.4 | 0.8 | 3.2 | 3.6 | 2.5 | 3.1 | 3.2 | 3.91 nM | EC50 [1]: 3.57 nM; EC50 [6]: 5.89 nM; OD490 (M7-2 [7]): 3; OD490 (M1-1 [8]): 3.1 |
| B3 | 3.9 | 3 | 3.4 | 2.2 | 1.2 | 3.6 | 3.7 | 3.9 | 0.2 | 0.5 | 3.8 | 3.9 | 2.6 | 0.4 | 3.8 | 3.9 | 3 | 3.4 | 3.8 | 3.78 nM | EC50 [1]: 2.05 nM; EC50 [6]: 5.07 nM; OD490 (M7-2 [7]): 2.2; OD490 (M1-1 [8]): 3.4 |
| B4 | 3.4 | 1.4 | 1.5 | 3.9 | 0.5 | 0.4 | 2.9 | 3.2 | 0.1 | 1.1 | 3.5 | 2.6 | 1 | 1 | 3.4 | 3.9 | 0.6 | 1.5 | 3.6 | 8.43 nM | OD490 (M7-2 [7]): 3.9; OD490 (M1-1 [8]): 1.5 |
